The record followed here is patent US20260167733A1 (CLEVELAND CLINIC FOUNDATION, published 2026).

The assay deals with T1, human AMHR2 on AMHR2-OVCAR8 cells (human, UniProt Q16671 18-573).
T1 construct: whole, on cells; Also the target in IHC of human HGSOC tumour tissue sections; also called AMHR2-ED on human EOC cells; anti-Mullerian hormone receptor type II
T1 sequence (looked up): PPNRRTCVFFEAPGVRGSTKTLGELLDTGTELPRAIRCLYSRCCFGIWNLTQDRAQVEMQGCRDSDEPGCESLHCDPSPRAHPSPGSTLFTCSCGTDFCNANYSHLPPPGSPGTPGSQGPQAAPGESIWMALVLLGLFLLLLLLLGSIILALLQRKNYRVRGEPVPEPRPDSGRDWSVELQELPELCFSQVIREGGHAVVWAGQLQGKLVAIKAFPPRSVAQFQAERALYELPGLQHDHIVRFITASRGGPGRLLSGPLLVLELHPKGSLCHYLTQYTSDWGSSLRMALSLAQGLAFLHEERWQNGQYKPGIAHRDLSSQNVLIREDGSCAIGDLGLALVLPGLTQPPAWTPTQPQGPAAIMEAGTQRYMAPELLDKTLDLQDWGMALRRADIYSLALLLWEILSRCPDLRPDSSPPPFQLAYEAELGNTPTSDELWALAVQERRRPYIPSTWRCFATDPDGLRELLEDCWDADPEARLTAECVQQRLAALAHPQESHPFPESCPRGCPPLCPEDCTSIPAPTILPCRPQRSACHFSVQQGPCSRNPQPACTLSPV
The assay can be described thus: flow cytometry on AMHR2-OVCAR8 cells. Here is the method: The human AMHR2-OVCAR8 cells expressing high levels of human AMHR2 were treated with Fc-receptor block (BD Biosciences, San Jose, CA) and immunostained with 5 μg of a human isotype control IgG1 mAb as well as with 5 μg of the chimeric 4D12G1 mAb and variants 5 and 6 of the humanized 4D12G1 mAb. Cells were then treated with FITC-labeled goat anti-human IgG (BD Biosciences) and analyzed by flow cytometry using a FACSAria II flow cytometer and BDFacsDiva software (BD Biosciences). […] Insets show darkly staining regions of AMHR2-ED expression which occurs primarily in the parenchyma, with some staining also visible in the stroma.
On the technique in general: A flow cytometer gives signals particle by particle.

B1: Anti-AMHR2-ED 4D12G1 Chimeric antibody (antibody, human IgG1, kappa, V domains shown)
VH: DVKLVESGGGLVKLGGSLKLSCAASGFTFSRYFMSWVRQTPEKRLELVAAINSDGGRTYYPDTVKGRFTISRDNAKNTLYLQMSSLKSEDTALYYCTRHIYSYYEDYFDYWGQGTTLTVSS
VL: DVVMTQTPLSLPVSLGDQASISCRSSQSLVHSNGNTYLHWYLQKPGQSPKLLIYKVSKRFSGVPDRFSGSGSGTDFTLKISRVEAEDLGVYFCSQSTHVYTFGGGTKLEIKR
notes: also called chimeric 4D12G1 mAb; Chimeric 4D12G1
Consider B1, for which the binding result is recorded as “binds”.

B2: Anti-AMHR2-ED 4D12G1 Variant 5 antibody (antibody, human IgG1, kappa)
heavy: not shown
light: DVVMTQTPLSSPVTLGQPASISCRSSQSLVHSNGNTYLHWYQQRPGQPPKLLIYKVSKRFSGVPDRFSGSGSGTDFTLKISRVEAEDVGVYFCSQSTHVYTFGQGTKLEIKRTVAAPSVFIFPPSDEQLKSGTASVVCLLNNFYPREAKVQWKVDNALQSGNSQESVTEQDSKDSTYSLSSTLTLSKADYEKHKVYACEVTHQGLSSPVTKSFNRGEC
notes: Humanized variant of 4D12G1; also called humanized 4D12G1 variant 5 mAb; 4D12G1 variant 5 mAb
Take B2: the binding result is recorded as “binds”.

B3: Anti-AMHR2-ED 4D12G1 Variant 6 antibody (antibody, human IgG1, kappa)
heavy: not shown
light: B2 light
notes: Humanized variant of 4D12G1; also called humanized 4D12G1 variant 6 mAb; Hu4D12G1-6
B3: the binding result is reported as “binds”.
